We go through 15 molecules from US20130071921A1 (Pfizer, published 2013).

For assay [1], the target named is T1, Recombinant human Dkk-1 (R&D Systems cat no. 1096-DK/CF), 10xHis tag at the C terminal (human, UniProt O94907 32-266).
T1 construct: the actual N-terminus of the purified protein is marked in bold italic after residue 30, but the mark is an image lost in the text; also called rhuDkk-1; hDkk-1
T1 sequence: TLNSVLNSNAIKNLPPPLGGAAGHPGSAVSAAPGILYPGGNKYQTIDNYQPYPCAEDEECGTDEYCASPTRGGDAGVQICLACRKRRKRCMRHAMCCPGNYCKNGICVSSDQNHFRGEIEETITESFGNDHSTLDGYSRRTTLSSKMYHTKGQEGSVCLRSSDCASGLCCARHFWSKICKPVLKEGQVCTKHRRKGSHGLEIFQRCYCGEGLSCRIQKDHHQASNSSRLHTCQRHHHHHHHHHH
The experiment in a line: theoretical: koff / estimated kon 1e6 1/Ms (SPR screening 37C). How it is done:
(§1) For screening assays to determine binding and dissociation rates of huMabJC18 variants to human Dkk1, either BIAcore or ProteOn XPR36 (BioRad, Inc.) systems were used. For the BIAcore assay, biotinylated-human Dkk1 was captured on SA (streptavidin) BIAcore chips according to the supplier's instructions. Biotinylated-human Dkk-1 protein was diluted into HBS-EP, and injected over the chip at a concentration of 5 μg/mL. Flow times across the individual chip channels were selected to achieve an antigen density of approximately 500-600 response units (RU). HBS-EP buffer was used as running buffer. Filtered recombinant E.coli cell lysates were injected at high temperature (37° C.) for 1 min at 30 ul/min, allowing a 1-5 min dissociation phase. Surfaces were regenerated with 8 mM NaOH+8% ethanol. A positive control Fab (clone 24) was injected twice at the start of the experiment, and again at the end of the assay to assess reproducibility.
For the ProteOn assay, biotinylated human Dkk-1 was injected for 1 min at serial fold dilutions empirically determined to yield different levels of immobilization (150-3000 RU) on five channels of a ProteOn NLC Neutravidin sensor chip. The sixth channel was left unmodified to serve as a reference surface. Recombinant Fabs in filtered E. coli lysates were injected at high temperature (37° C.) for 50 sec at 20 μl/min. Running buffer consisted of PBS+1 mg/ml BSA+0.005% Tween-20. The ProteOn is configured such that each injection flows over each of the five Dkk-1 channels as well as the reference channel, and six Fab samples can be injected simultaneously. Fab dissociation from the Dkk-1 surface was monitored for 20 min. The chip surface was regenerated with a 30-sec injection of 8% EtOH, 8 mM NaOH. Clone 24 Fab was used as control. Level of binding during association, and rate of dissociation for each clone was very consistent between different ligand channels. […]

Assay [2] has as its target T1, Recombinant human Dkk-1 (R&D Systems …). As to the kind of experiment: SPR screening 37C (BIAcore/ProteOn), Fab lysate over biotinylated human Dkk-1. How it is done:
as §1
For the ProteOn assay, biotinylated human Dkk-1 was injected for 1 min at serial fold dilutions empirically determined to yield different levels of immobilization (150-3000 RU) on five channels of a ProteOn NLC Neutravidin sensor chip. The sixth channel was left unmodified to serve as a reference surface. Recombinant Fabs in filtered E. coli lysates were injected at high temperature (37° C.) for 50 sec at 20 μl/min. Running buffer consisted of PBS+1 mg/ml BSA+0.005% Tween-20. The ProteOn is configured such that each injection flows over each of the five Dkk-1 channels as well as the reference channel, and six Fab samples can be injected simultaneously. Fab dissociation from the Dkk-1 surface was monitored for 20 min. The chip surface was regenerated with a 30-sec injection of 8% EtOH, 8 mM NaOH. Clone 24 Fab was used as control. Level of binding during association, and rate of dissociation for each clone was very consistent between different ligand channels.
Background: SPR reads the build-up and loss of mass on a sensor chip optically.

B1: L2.4D11 (Fab, V domains shown)
VH: EVQLVESGGGLVQPGGSLRLSCAASGFTFSSYAISWVRQAPGKGLEWVASVSGWMDTYYPDSVKGRFTISRDNAKNSLYLQMNSLRAEDTAVYYCATSLENYAFDYWGQGTTVTVSS
VL: EIVLTQSPATLSLSPGERATLSCRASESVDDFGISFMNWYQQKPGQAPRLLIYAASKQGSGIPARFSGSGSGTDFTLTISSLEPEDFAVYYCQQSKEVPPTFGGGTKVEIK
notes: tested as Fab (E. coli lysate, screening mode); human kappa CL and IgG2 CH1 not included here
Regarding B1, the Kd in assay [1] is 3.26 nM. Besides, in assay [2], the koff came out at 0.00326 s⁻¹.

B2: L3.1B12 (Fab, V domains shown)
VH: EVQLVESGGGLVQPGGSLRLSCAASGFTFSSYAISWVRQAPGKGLEWVASVSGWFGTYYPDSVKGRFTISRDNAKNSLYLQMNSLRAEDTAVYYCATSLENYAFDYWGQGTTVTVSS
VL: EIVLTQSPATLSLSPGERATLSCRASESVDDFGISFINWYQQKPGQAPRLLIYAGSKQGSGIPARFSGSGSGTDFTLTISSLEPEDFAVYYCQQLKEVPPTFGGGTKVEIK
notes: as for B1
With B2, the Kd in assay [1] was 0.21 nM. The koff in assay [2] is 0.00021 s⁻¹.

B3: L3.4E10 (Fab, V domains shown)
VH: EVQLVESGGGLVQPGGSLRLSCAASGFTFSSYAISWVRQAPGKGLEWVASVSGWGHTYYPDSVKGRFTISRDNAKNSLYLQMNSLRAEDTAVYYCATSLQNYAFDYWGQGTTVTVSS
VL: EIVLTQSPATLSLSPGERATLSCRASESVDDFGISFINWYQQKPGQAPRLLIYAGSKQGSGIPARFSGSGSGTDFTLTISSLEPEDFAVYYCQQLKEVPPTFGGGTKVEIK
notes: as for B1
B3: in assay [1], the Kd was 0.533 nM. In assay [2], the koff came out at 0.000533 s⁻¹.

B4: L3.2H10 (Fab, V domains shown)
VH: EVQLVESGGGLVQPGGSLRLSCAASGFTFSSYAISWVRQAPGKGLEWVASVSGWLGTYYPDSVKGRFTISRDNAKNSLYLQMNSLRAEDTAVYYCATSLKNYAFDYWGQGTTVTVSS
VL: EIVLTQSPATLSLSPGERATLSCRASESVDDFGISFINWYQQKPGQAPRLLIYAGSKQGSGIPARFSGSGSGTDFTLTISSLEPEDFAVYYCQQLKEVPPTFGGGTKVEIK
notes: as for B1
For B4, the Kd in assay [1] was 0.569 nM. The dissociation rate constant (koff) in assay [2] amounted to 0.000569 s⁻¹.

B5: L2.4G10 (Fab, V domains shown)
VH: EVQLVESGGGLVQPGGSLRLSCAASGFTFSSYAISWVRQAPGKGLEWVASVSGWLDTYYPDSVKGRFTISRDNAKNSLYLQMNSLRAEDTAVYYCATSLRNYAFDYWGQGTTVTVSS
VL: EIVLTQSPATLSLSPGERATLSCRASESVDDFGISFMNWYQQKPGQAPRLLIYAASKQGSGIPARFSGSGSGTDFTLTISSLEPEDFAVYYCQQSKEVPPTFGGGTKVEIK
notes: as for B1
As to B5, the Kd in assay [1] was 2.76 nM. For the same molecule, the koff in assay [2] was 0.00276 s⁻¹.

B6: L3.2H8 (Fab, V domains shown)
VH: EVQLVESGGGLVQPGGSLRLSCAASGFTFSSYAISWVRQAPGKGLEWVASVSGWLGTYYPDSVKGRFTISRDNAKNSLYLQMNSLRAEDTAVYYCATSLQNYAFDYWGQGTTVTVSS
VL: EIVLTQSPATLSLSPGERATLSCRASESVDDFGISFINWYQQKPGQAPRLLIYAGSKQGSGIPARFSGSGSGTDFTLTISSLEPEDFAVYYCQQLKEVPPTFGGGTKVEIK
notes: as for B1
B6: the Kd in assay [1] was 0.555 nM. The koff in assay [2] was 0.000555 s⁻¹.

B7: L3.4E7 (Fab, V domains shown)
VH: EVQLVESGGGLVQPGGSLRLSCAASGFTFSSYAISWVRQAPGKGLEWVASVSGWGDTYYPDSVKGRFTISRDNAKNSLYLQMNSLRAEDTAVYYCATSLQNYAFDYWGQGTTVTVSS
VL: EIVLTQSPATLSLSPGERATLSCRASESVDDFGISFINWYQQKPGQAPRLLIYAGSKQGSGIPARFSGSGSGTDFTLTISSLEPEDFAVYYCQQLKEVPPTFGGGTKVEIK
notes: tested as Fab (E. coli lysate, screening mode); human kappa CL and IgG2 CH1 not included here; printed changes identical to L3.4H2
Turning to B7, the Kd in assay [1] is 0.276 nM. Besides, the koff in assay [2] came to 0.000276 s⁻¹.

B8: L3.1A3 (Fab, V domains shown)
VH: EVQLVESGGGLVQPGGSLRLSCAASGFTFSSYAISWVRQAPGKGLEWVASVSGWFHTYYPDSVKGRFTISRDNAKNSLYLQMNSLRAEDTAVYYCATSLRNYAFDYWGQGTTVTVSS
VL: EIVLTQSPATLSLSPGERATLSCRASESVDDFGISFINWYQQKPGQAPRLLIYAGSKQGSGIPARFSGSGSGTDFTLTISSLEPEDFAVYYCQQLKEVPPTFGGGTKVEIK
notes: as for B1
For B8, the Kd in assay [1] is 0.184 nM. Further, the koff in assay [2] was determined as 0.00018 s⁻¹.

B9: L3.1H3 (Fab, V domains shown)
VH: EVQLVESGGGLVQPGGSLRLSCAASGFTFSSYAISWVRQAPGKGLEWVASVSGWLHTYYPDSVKGRFTISRDNAKNSLYLQMNSLRAEDTAVYYCATSLENYAFDYWGQGTTVTVSS
VL: EIVLTQSPATLSLSPGERATLSCRASESVDDFGISFINWYQQKPGQAPRLLIYAGSKQGSGIPARFSGSGSGTDFTLTISSLEPEDFAVYYCQQLKEVPPTFGGGTKVEIK
notes: as for B1
As to B9, in assay [1], the Kd is 1.15 nM. Also, in assay [2], the dissociation rate constant (koff) is 0.00115 s⁻¹.

B10: L2.P4.E7 (Fab, V domains shown)
VH: EVQLVESGGGLVQPGGSLRLSCAASGFTFSSYAISWVRQAPGKGLEWVASVSGWGDTYYPDSVKGRFTISRDNAKNSLYLQMNSLRAEDTAVYYCATSLRNYAFDYWGQGTTVTVSS
VL: EIVLTQSPATLSLSPGERATLSCRASESVDDFGISFMNWYQQKPGQAPRLLIYAASKQGSGIPARFSGSGSGTDFTLTISSLEPEDFAVYYCQQSKEVPPTFGGGTKVEIK
notes: as for B1
In the case of B10, the Kd in assay [1] was 5.19 nM. In addition, in assay [2], the koff stood at 0.00519 s⁻¹.

B11: L2.P4.B5 (Fab, V domains shown)
VH: EVQLVESGGGLVQPGGSLRLSCAASGFTFSSYAISWVRQAPGKGLEWVASVSGWGDTYYPDSVKGRFTISRDNAKNSLYLQMNSLRAEDTAVYYCATSYENYAFDYWGQGTTVTVSS
VL: EIVLTQSPATLSLSPGERATLSCRASESVDDFGISFMNWYQQKPGQAPRLLIYAASKQGSGIPARFSGSGSGTDFTLTISSLEPEDFAVYYCQQSKEVPPTFGGGTKVEIK
notes: as for B1
Take B11: the Kd in assay [1] is 5.32 nM. Moreover, the koff in assay [2] was 0.00532 s⁻¹.

B12: L3.4E6 (Fab, V domains shown)
VH: EVQLVESGGGLVQPGGSLRLSCAASGFTFSSYAISWVRQAPGKGLEWVASVSGGLGTYYPDSVKGRFTISRDNAKNSLYLQMNSLRAEDTAVYYCATSLRNYAFDYWGQGTTVTVSS
VL: EIVLTQSPATLSLSPGERATLSCRASESVDDFGISFINWYQQKPGQAPRLLIYAGSKQGSGIPARFSGSGSGTDFTLTISSLEPEDFAVYYCQQLKEVPPTFGGGTKVEIK
notes: as for B1
Turning to B12, in assay [1], the Kd was 0.99 nM. Besides, the koff in assay [2] is 0.00099 s⁻¹.

B13: L2.P4.H3 (Fab, V domains shown)
VH: EVQLVESGGGLVQPGGSLRLSCAASGFTFSSYAISWVRQAPGKGLEWVASVSGWLDTYYPDSVKGRFTISRDNAKNSLYLQMNSLRAEDTAVYYCATSLENYAFDYWGQGTTVTVSS
VL: EIVLTQSPATLSLSPGERATLSCRASESVDDFGISFMNWYQQKPGQAPRLLIYAASKQGSGIPARFSGSGSGTDFTLTISSLEPEDFAVYYCQQSKEVPPTFGGGTKVEIK
notes: as for B1
For the molecule B13, the Kd in assay [1] is 2.74 nM. Further, the koff in assay [2] turned out to be 0.00274 s⁻¹.

B14: L3.1D7 (Fab, V domains shown)
VH: EVQLVESGGGLVQPGGSLRLSCAASGFTFSSYAISWVRQAPGKGLEWVASVSGWFRTYYPDSVKGRFTISRDNAKNSLYLQMNSLRAEDTAVYYCATSLRNYAFDYWGQGTTVTVSS
VL: EIVLTQSPATLSLSPGERATLSCRASESVDDFGISFINWYQQKPGQAPRLLIYAGSKQGSGIPARFSGSGSGTDFTLTISSLEPEDFAVYYCQQLKEVPPTFGGGTKVEIK
notes: as for B1
As to B14, the Kd in assay [1] is 0.164 nM. Also, the koff in assay [2] turned out to be 0.000164 s⁻¹.

B15: L2.P4.C10 (Fab, V domains shown)
VH: EVQLVESGGGLVQPGGSLRLSCAASGFTFSSYAISWVRQAPGKGLEWVASVSGWGDTYYPDSVKGRFTISRDNAKNSLYLQMNSLRAEDTAVYYCATSLKNYAFDYWGQGTTVTVSS
VL: EIVLTQSPATLSLSPGERATLSCRASESVDDFGISFMNWYQQKPGQAPRLLIYAASKQGSGIPARFSGSGSGTDFTLTISSLEPEDFAVYYCQQSKEVPPTFGGGTKVEIK
notes: as for B1
Regarding B15, the dissociation constant Kd in assay [1] is 4.31 nM. For the same molecule, the koff in assay [2] came out at 0.00431 s⁻¹.

Usually Kd stands for a measure of binding affinity in units of concentration. Usually koff stands for the rate constant with which the complex falls apart.
